# Results published in patent publication US20200148784A1 (AGILVAX, published 2020).
# B1: 11D1/H10 subclone A1 (antibody)
# heavy: QVQLQQSGAELVRPGASVKLSCKALGYTFTDYEMHWVKQTPVHGLEWIGAIHPGSGGTAYNQKFKGKATLTADKSSSTAYMELSSLTSEDSAVYYCTRPLYYRYPYYFDYWGQGTTLTVSSESQSFPNVFPLVSCESPLSDKNLVAMGCLARDFLPSTISFTWNYQNNTEVIQGIRTFPTLRTGGKYLATSQVLLSPKSILEGSDEYLVCKIHYGGKNRDLHVPIPAVAEMNPNVNVFVPPRDGFSGPAPRKSKLICEATNFTPKPITVSWLKDGKLVESGFTTDPVTIENKGSTPQTYKVISTLTISEIDWLNLNVYTCRVDHRGLTFLKNVSSTCAASPSTDILTFTIPPSFADIFLSKSANLTCLVSNLATYETLNISWASQSGEPLETKIKIMESHPNGTFSAKGVASVCVEDWNNRKEFVCTVTHRDLPSPQKKFISKPNEVHKHPPAVYLLPPAREQLNLRESATVTCLVKGFSPADISVQWLQRGQLLPQEKYVTSAPMPEPGAPGFYFTHSILTVTEEEWNSGETYTCVVGHEALPHLVTERTVDKSTGKPTLYNVSLIMSDTGGTCY
# light: QIVLTQSPAIMSASPGEKVTISCSASSSVSYMYWYQQKPGSSPKPWIYRTSNLASGVPARFSGSGSGTSYSLTISSMEAEDAATYYCQQYHSYPLTFGAGTKLELKRADAAPTVSIFPPSSEQLTSGGASVVCFLNNFYPKDINVKWKIDGSERQNGVLNSWTDQDSKDSTYSMSSTLTLTKDEYERHNSYTCEATHKTSTSPIVKSFNRNEC
# B2: 11D1/H10 subclone A5 (antibody)
# heavy: B1 heavy
# light: B1 light
# notes: IgM kappa
# B3: 11D1/H10 subclone D5 (antibody)
# heavy: B1 heavy
# light: B1 light
# notes: IgM kappa
# B4: 11D1/H10 subclone B9 (antibody)
# heavy: B1 heavy
# light: B1 light
# notes: IgM kappa
# B5: 11D1/H10 subclone E1 (antibody)
# heavy: B1 heavy
# light: B1 light
# notes: IgM kappa
# Molecular target: T1, human-xCT ECD3 peptide (human)
# T1 construct: Coated at 1 µg/mL
# T1 peptide: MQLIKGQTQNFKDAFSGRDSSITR
# Assay: ELISA of subclone supernatant against xCT
row,Binder,ELISA O.D. 450
1,B1,≥ 0.4
2,B2,≥ 0.4
3,B3,≥ 0.4
4,B4,≥ 0.4
5,B5,≥ 0.4
